Numbering of substitutions follows the chain as printed.
B1: DART-G3 (bispecific antibody, human IgG1, kappa, L234A L235A)
heavy: QVQLVQSGAEVKKPGASVKVSCKASGYTFTNYGMNWVRQAPGQGLEWMGWINTNIGEPTYTEEFKGRVTMTRDTSISTAYMELSRLRSDDTAVYYCARDDGYGNRVSYWGQGTLVTVSSASTKGPSVFPLAPSSKSTSGGTAALGCLVKDYFPEPVTVSWNSGALTSGVHTFPAVLQSSGLYSLSSVVTVPSSSLGTQTYICNVNHKPSNTKVDKRVEPKSCDKTHTCPPCPAPEAAGGPSVFLFPPKPKDTLMISRTPEVTCVVVDVSHEDPEVKFNWYVDGVEVHNAKTKPREEQYNSTYRVVSVLTVLHQDWLNGKEYKCKVSNKALPAPIEKTISKAKGQPREPQVYTLPPSREEMTKNQVSLSCAVKGFYPSDIAVEWESNGQPENNYKTTPPVLDSDGSFFLVSKLTVDKSRWQQGNVFSCSVMHEALHNRYTQKSLSLSPGK
light: DIQMTQSPSSLSASVGDRVTITCKASQDISNYLSWFQQKPGKAPKTLIYRANRLQSGVPSRFSGSGSGTDFTLTISSLQPEDFATYYCLQHDEFPWTFGQGTKLEIKRTVAAPSVFIFPPSDEQLKSGTASVVCLLNNFYPREAKVQWKVDNALQSGNSQESVTEQDSKDSTYSLSSTLTLSKADYEKHKVYACEVTHQGLSSPVTKSFNRGEC
chain 1: QVQLVQSGAEVKKPGASVKVSCKASGYTFTNYGMNWVRQAPGQGLEWMGWINTNIGEPTYTEEFKGRVTMTRDTSISTAYMELSRLRSDDTAVYYCARDDGYGNRVSYWGQGTLVTVSSASTKGPSVFPLAPSSKSTSGGTAALGCLVKDYFPEPVTVSWNSGALTSGVHTFPAVLQSSGLYSLSSVVTVPSSSLGTQTYICNVNHKPSNTKVDKRVEPKSCDKTHTCPPCPAPEAAGGPSVFLFPPKPKDTLMISRTPEVTCVVVDVSHEDPEVKFNWYVDGVEVHNAKTKPREEQYNSTYRVVSVLTVLHQDWLNGKEYKCKVSNKALPAPIEKTISKAKGQPREPQVYTLPPSREEMTKNQVSLWCLVKGFYPSDIAVEWESNGQPENNYKTTPPVLDSDGSFFLYSKLTVDKSRWQQGNVFSCSVMHEALHNHYTQKSLSLSPGGGGSGGGSGGGDIQMTQSPSSLSASVGDRVTITCRPSQDISNYLNWYQQKPDKTVKLLIYYTSRLRSGVPSRFSGSGSGTDFTFTISSLQPEDIATYFCQQGDTLPYTFGQGTKLEIKGGGSGGGGQVQVQLVQSGAEVKKPGASVKVSCKASGYTFTSYWINWVKQAPGQGLEWIGNIYPSDSYTNYNQKFKDKATITADKSTSTAYMELSSLRSEDTAVYYCTRDYGSAYSYSLWGQGTTVTVSSGGCGGGEVAALEKEVAALEKEVAALEKEVAALEK
chain 2: DIQMTQSPSSLSASVGDRVTITCRPSQDISNYLNWYQQKPDKTVKLLIYYTSRLRSGVPSRFSGSGSGTDFTFTISSLQPEDIATYFCQQGDTLPYTFGQGTKLEIKGGGSGGGGQVQLVQSGAEVKKPGASVKVSCKASGYTFTSYWINWVKQAPGQGLEWIGNIYPSDSYTNYNQKFKDKATITADKSTSTAYMELSSLRSEDTAVYYCTRDYGSAYSYSLWGQGTTVTVSSGGCGGGKVAALKEKVAALKEKVAALKEKVAALKE
notes: also called optimized DART-G3
B2: DART-G2 (bispecific antibody, human IgG1, kappa, L234A L235A)
heavy: B1 heavy
light: B1 light
chain 1: B1 chain 1 with Y682M, L684T
chain 2: B1 chain 2 with Y221M, L223T
notes: also called optimized DART-G2
B3: DART-G4 (bispecific antibody, human IgG1, kappa, L234A L235A)
heavy: B1 heavy
light: B1 light
chain 1: B1 chain 1 with A679S, S683N, L684V
chain 2: B1 chain 2 with A218S, S222N, L223V
notes: also called optimized DART-G4
B4: TRIDENT-4 (bispecific antibody, human IgG1, kappa, L234A L235A)
chain 1: DIQMTQSPSSLSASVGDRVTITCQASQDISNYLNWYQQKPDKTVKLLIYYTGRARSGVPSRFSGSGSGTDFTFTISSLQPEDIATYFCQQGDTLPYTFGQGTKLEIKGGGSGGGGQVQLVQSGAEVKKPGASVKVSCKASGYTFTSYWINWVRQAPGQGLEWIGNIYPSDSYTNYNQKFKDKATITADKSTSTAYMELSSLRSEDTAVYYCTRDYGSAYSMSTWGQGTTVTVSSASTKGEVAACEKEVAALEKEVAALEKEVAALEKGGGDKTHTCPPCPAPEAAGGPSVFLFPPKPKDTLMISRTPEVTCVVVDVSHEDPEVKFNWYVDGVEVHNAKTKPREEQYNSTYRVVSVLTVLHQDWLNGKEYKCKVSNKALPAPIEKTISKAKGQPREPQVYTLPPSREEMTKNQVSLWCLVKGFYPSDIAVEWESNGQPENNYKTTPPVLDSDGSFFLYSKLTVDKSRWQQGNVFSCSVMHEALHNHYTQKSLSLSPGK
chain 2: DIQMTQSPSSLSASVGDRVTITCQASQDISNYLNWYQQKPDKTVKLLIYYTGRARSGVPSRFSGSGSGTDFTFTISSLQPEDIATYFCQQGDTLPYTFGQGTKLEIKGGGSGGGGQVQLVQSGAEVKKPGASVKVSCKASGYTFTSYWINWVRQAPGQGLEWIGNIYPSDSYTNYNQKFKDKATITADKSTSTAYMELSSLRSEDTAVYYCTRDYGSAYSMSTWGQGTTVTVSSASTKGKVAACKEKVAALKEKVAALKEKVAALKE
heavy: QVTLRESGPALVKPTQTLTLTCTFSGFSLSTSGMSVGWIRQPPGKALEWLADIWWDDKKDYNPSLKSRLTISKDTSKNQVVLKVTNMDPADTATYYCARSMITNWYFDVWGAGTTVTVSSASTKGPSVFPLAPSSKSTSGGTAALGCLVKDYFPEPVTVSWNSGALTSGVHTFPAVLQSSGLYSLSSVVTVPSSSLGTQTYICNVNHKPSNTKVDKRVEPKSCDKTHTCPPCPAPEAAGGPSVFLFPPKPKDTLMISRTPEVTCVVVDVSHEDPEVKFNWYVDGVEVHNAKTKPREEQYNSTYRVVSVLTVLHQDWLNGKEYKCKVSNKALPAPIEKTISKAKGQPREPQVYTLPPSREEMTKNQVSLSCAVKGFYPSDIAVEWESNGQPENNYKTTPPVLDSDGSFFLVSKLTVDKSRWQQGNVFSCSVMHEALHNRYTQKSLSLSPGK
light: DIQMTQSPSTLSASVGDRVTITCRASQSVGYMHWYQQKPGKAPKLLIYDTSKLASGVPSRFSGSGSGTEFTLTISSLQPDDFATYYCFQGSGYPFTFGGGTKLEIKRTVAAPSVFIFPPSDEQLKSGTASVVCLLNNFYPREAKVQWKVDNALQSGNSQESVTEQDSKDSTYSLSSTLTLSKADYEKHKVYACEVTHQGLSSPVTKSFNRGEC

Legend:
[1] = molecular target: T1, extracellular portion of human CD137 fused to a histidine-containing peptide (human, UniProt Q07011 24-186); test: SPR (BIACORE); molecule captured on anti-human Fc; huCD137 6.25-100 nM; 1:1 Langmuir
T1 construct: extracellular domain; also called huCD137; His-tagged soluble human CD137
Experimental: (§1) The amino acid sequences of these clones were incorporated into the 5 chain diabody DART-G to yield optimized DART-G molecules (designated as DART-G1, DART-G2; DART-G3, and DART-G4). The binding affinity of DART-G2, DART-G3, and DART-G4 were evaluated via BIAcore (Table 11). For such evaluation, His-tagged soluble human CD137 (huCD137) or cynomolgus monkey CD137 (cynoCD137) (containing an extracellular portion of human or cynomolgus monkey CD137 fused to a histidine-containing peptide) was passed over a surface coated with immobilized antibody. Briefly, each test molecule was captured onto an F(ab)₂ goat-anti-human Fc-coated surface and then incubated in the presence of different concentrations (6.25-100 nM) of huCD137 or cynoCD137. The kinetics of binding were determined via BIACORE® analysis binding (normalized 1:1 Langmuir binding model).

[2] = molecular target: T2, extracellular portion of cynomolgus monkey CD137 fused to a histidine-containing peptide (cynomolgus monkey, UniProt A9YYE7 24-186); test: SPR (BIACORE); molecule captured on anti-human Fc; cynoCD137 6.25-100 nM; column head ×10^-4 applied as printed
T2 construct: extracellular domain; also called cynoCD137
T2 sequence: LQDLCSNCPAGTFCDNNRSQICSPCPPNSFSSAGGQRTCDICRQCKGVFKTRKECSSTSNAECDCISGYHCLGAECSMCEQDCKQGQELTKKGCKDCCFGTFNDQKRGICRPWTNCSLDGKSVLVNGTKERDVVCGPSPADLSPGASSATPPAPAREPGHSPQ
Experimental: as §1

[3] = molecular target: T3, CD137 on the surface of cells (activated human T cells; engineered CHO cells) (human, UniProt Q07011 24-255); test: flow cytometry on activated pan T cells (donor D46433, CD8 PE), anti-hFc APC MFI
T3 construct: whole, on cells; also called human CD137; cell surface expressed CD137
T3 sequence (Q07011 24-255, change not shown): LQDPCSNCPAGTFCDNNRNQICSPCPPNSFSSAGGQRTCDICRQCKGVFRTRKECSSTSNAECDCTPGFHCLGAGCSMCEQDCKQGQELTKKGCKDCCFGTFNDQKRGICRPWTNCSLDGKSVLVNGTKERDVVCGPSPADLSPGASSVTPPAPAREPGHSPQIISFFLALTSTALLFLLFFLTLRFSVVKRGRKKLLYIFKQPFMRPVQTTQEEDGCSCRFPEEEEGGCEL

[4] = molecular target: T2, extracellular portion of cynomolgus …; test: SPR (BIACORE); molecule captured on anti-human Fc; cynoCD137 6.25-100 nM; 1:1 Langmuir
Experimental: as §1

[5] = molecular target: T4, HER2/neu on the surface of target cells (N87, JIMT-1, MCF-7, MDA-MB231) (UniProt P04626 23-1255, limits assumed); test: flow cytometry on MCF-7 cells, anti-hFc APC MFI
T4 construct: whole, on cells

[6] = molecular target: T3, CD137 on the surface of cells …; test: flow cytometry on activated CD8+ T cells (donor D53781, CD8 FITC), anti-hFc APC MFI
[7] = molecular target: T4, HER2/neu on the surface of target cells …; test: flow cytometry on N87 cells, anti-hFc APC MFI
[8] = molecular target: T3, CD137 on the surface of cells …; test: flow cytometry on CD137-expressing CHO cells (CHO/137), anti-hFc APC MFI
[9] = molecular target: T4, HER2/neu on the surface of target cells …; test: flow cytometry on JIMT-1 cells, anti-hFc APC MFI
[10] = molecular target: T3, CD137 on the surface of cells …; test: flow cytometry on activated CD8+ T cells (donor D59788, CD8 FITC), anti-hFc APC MFI
[11] = molecular target: T5, 5T4 on the surface of target cells (JIMT-1, SKOV-3) (UniProt Q13641 32-420, limits assumed); test: flow cytometry on JIMT-1 (5T4 hi) cells, anti-hFc APC MFI
T5 construct: whole, on cells
T5 sequence (looked up): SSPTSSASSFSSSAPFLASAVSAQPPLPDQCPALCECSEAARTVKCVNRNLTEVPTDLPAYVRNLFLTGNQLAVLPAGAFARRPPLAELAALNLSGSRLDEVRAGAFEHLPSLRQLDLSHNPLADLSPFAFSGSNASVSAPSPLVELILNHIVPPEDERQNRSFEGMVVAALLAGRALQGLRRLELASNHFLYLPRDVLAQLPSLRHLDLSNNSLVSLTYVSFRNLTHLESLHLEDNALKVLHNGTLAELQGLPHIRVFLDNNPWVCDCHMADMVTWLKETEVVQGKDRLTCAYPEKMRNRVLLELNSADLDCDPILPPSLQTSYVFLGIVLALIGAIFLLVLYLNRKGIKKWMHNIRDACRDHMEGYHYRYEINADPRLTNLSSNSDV

Binder | Kd [1] [nM] | koff [1] [s⁻¹] | kon [1] [M⁻¹ s⁻¹] | koff [2] [s⁻¹] | EC50 (read off the curve) [3] [nM] | Kd [4] [nM] | kon [4] [M⁻¹ s⁻¹] | EC50 (read off the curve) [5] [nM] | EC50 (read off the curve) [6] [µg/mL] | EC50 (read off the curve) [7] [nM] | EC50 (read off the curve) [8] [µg/mL] | EC50 (read off the curve) [9] [nM] | EC50 (read off the curve) [10] [µg/mL] | binding result [11]
B1 | 64 | 0.014 | 220000 | 0.018 | ~0.1 | 78 | 230000 | ~0.09 | ~0.02 | ~0.5 | ~0.02 | ~0.2 | – | –
B2 | 60 | 0.021 | 350000 | 0.025 | ~0.1 | 64 | 390000 | ~0.09 | ~0.02 | ~0.5 | ~0.02 | ~0.2 | – | –
B3 | 28 | 0.0087 | 310000 | 0.014 | ~0.08 | 40 | 350000 | ~0.09 | ~0.02 | ~0.5 | ~0.02 | ~0.2 | – | –
B4 | – | – | – | – | – | – | – | – | – | – | – | – | ~0.007 | no binding (tested: 10 ug/mL)

From US20220406376A1 (MacroGenics, published 2022)
